Results: patent publication US6379664

B1: recombinant human lens thioltransferase (protein)
chain: AQEFVNCKIQPGKVVVFIKPTCPFCVKTQELLSQLPFKEGLLEFVDITATSDTNEIQDYLQQLTGARTVPRVFIGKECIGGCTDLESMHKRGELLTRLQQIGALK
B2: recombinant human lens thioltransferase, P12309 2-106 (enzyme)
chain: B1 chain

How the values were obtained:
[1] = molecular target: BSA-GSH mixed disulfide, P02769
[2] = molecular target: G3PD from H2O2 (0.5 mM) pretreated rabbit lens epithelial cells
[3] = molecular target: alpha crystallin-GSH mixed disulfide
[4] = molecular target: alpha crystalline-cystine mixed disulfide
[5] = molecular target: gamma crystallin-GSH mixed disulfide
[6] = molecular target: protein-cysteine mixed disulfides (PSSC); test: cell-based or functional assay

Sequence of BSA-GSH mixed disulfide, P02769 (P02769 25-607): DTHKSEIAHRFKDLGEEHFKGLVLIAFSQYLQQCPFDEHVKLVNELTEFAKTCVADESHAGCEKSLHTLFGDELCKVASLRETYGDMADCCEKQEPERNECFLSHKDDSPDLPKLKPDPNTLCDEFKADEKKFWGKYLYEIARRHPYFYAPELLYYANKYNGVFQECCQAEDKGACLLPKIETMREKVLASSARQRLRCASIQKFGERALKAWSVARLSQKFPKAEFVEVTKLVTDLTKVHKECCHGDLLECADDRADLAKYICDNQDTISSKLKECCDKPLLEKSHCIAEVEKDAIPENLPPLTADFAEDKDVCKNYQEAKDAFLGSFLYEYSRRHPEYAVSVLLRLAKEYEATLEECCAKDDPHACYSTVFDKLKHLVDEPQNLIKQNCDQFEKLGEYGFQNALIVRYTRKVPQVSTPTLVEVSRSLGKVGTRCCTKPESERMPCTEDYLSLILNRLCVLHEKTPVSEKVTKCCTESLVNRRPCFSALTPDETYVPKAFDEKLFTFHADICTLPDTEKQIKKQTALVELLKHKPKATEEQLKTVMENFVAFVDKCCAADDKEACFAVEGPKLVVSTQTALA

Binder	dethiolation of 3H-PSSG (nmol dethiolated per µg thioltransferase protein; TCA-soluble radioactivity) [1]	regeneration of G3PD activity (percent of activity regenerated by 30 mM DTT) [2]	dethiolation of 3H-PSSG (nmol dethiolated per µg thioltransferase protein; TCA-soluble radioactivity) [3]	dethiolation of 14C-PSSC [4]	dethiolation of 3H-PSSG (nmol dethiolated per µg thioltransferase protein; TCA-soluble radioactivity) [5]	substrate preference in dethiolation [5]	dethiolation of PSSC relative to PSSG [6]
B1	0.3 nmol/µg thioltransferase	regeneration of G3PD from H2O2 (0.5 mM) pretreated rabbit cells by recombinant human lens thioltransferase	0.6 nmol/µg thioltransferase	alpha crystalline-cystine mixed disulfide could not be dethiolated by lens thioltransferase	1.15 nmol/µg thioltransferase	Gamma crystallin-thiol mixed disulfide appears to be the favorable substrate for lens thioltransferase	
B2							50 to 60%
